# Results published in PMC12582304, “Asymmetric gating of a homopentameric ion channel GLIC revealed by cryo-EM” (Proceedings of the National Academy of Sciences of the …, 2025).
# B1: Gloeobacter violaceus proton-gated ion channel (GLIC), wild type (natural protein)
# chain: VSPPPPIADEPLTVNTGIYLIECYSLDDKAETFKVNAFLSLSWKDRRLAFDPVRSGVRVKTYEPEAIWIPEIRFVNVENARDADVVDISVSPDGTVQYLERFSARVLSPLDFRRYPFDSQTLHIYLIVRSVDTRNIVLAVDLEKVGKNDDVFLTGWDIESFTAVVKPANFALEDRLESKLDYQLRISRQYFSYIPNIILPMLFILFISWTAFWSTSYEANVTLVVSTLIAHIAFNILVETNLPKTPYMTYTGAIIFMIYLFYFVAVIEVTVQHYLKVESQPARAASITRASRIAFPVVFLLANIILAFLFFG
# notes: GLIC, proton-gated pentameric ligand-gated ion channel of Gloeobacter violaceus; Homopentamer in DOPE/POPC/POPS nanodiscs; As I recall, the construct is the mature channel without its signal peptide, about 317 residues; also called GLIC-WT; WT; source: E. coli C41, purified (amylose resin, SEC), nanodisc-reconstituted
# Molecular target: the molecule itself
# Assay: cryo-EM structure; nanodisc-reconstituted GLIC-WT at pH 4.0; earlier dataset (ref. 44) reprocessed with symmetry expansion, focused classification and particle reorientation; C5 or no symmetry imposed
protein,measurement,value
B1,stoichiometry N,5
